From article PMC10208982, “Structural basis of catalytic activation in human splicing” (Nature, 2023) come the findings set out here.

In the test the target is T1, PRP2(137–1022) (human, UniProt O60231 137-1022).
T1 construct: comprises the modelled NTD (pin, clip, hook) and the helicase core; The tag can be cleaved off with HRV-3C protease; also called recombinant PRP2; source: Sf9 or Hi5 insect cells, purified (Strep-Tactin, then SEC or Q Sepharose); also co-expressed with PPIL4 in Sf9, in lysate; not shown: Twin-StrepII, N-terminal, kept
T1 sequence (looked up): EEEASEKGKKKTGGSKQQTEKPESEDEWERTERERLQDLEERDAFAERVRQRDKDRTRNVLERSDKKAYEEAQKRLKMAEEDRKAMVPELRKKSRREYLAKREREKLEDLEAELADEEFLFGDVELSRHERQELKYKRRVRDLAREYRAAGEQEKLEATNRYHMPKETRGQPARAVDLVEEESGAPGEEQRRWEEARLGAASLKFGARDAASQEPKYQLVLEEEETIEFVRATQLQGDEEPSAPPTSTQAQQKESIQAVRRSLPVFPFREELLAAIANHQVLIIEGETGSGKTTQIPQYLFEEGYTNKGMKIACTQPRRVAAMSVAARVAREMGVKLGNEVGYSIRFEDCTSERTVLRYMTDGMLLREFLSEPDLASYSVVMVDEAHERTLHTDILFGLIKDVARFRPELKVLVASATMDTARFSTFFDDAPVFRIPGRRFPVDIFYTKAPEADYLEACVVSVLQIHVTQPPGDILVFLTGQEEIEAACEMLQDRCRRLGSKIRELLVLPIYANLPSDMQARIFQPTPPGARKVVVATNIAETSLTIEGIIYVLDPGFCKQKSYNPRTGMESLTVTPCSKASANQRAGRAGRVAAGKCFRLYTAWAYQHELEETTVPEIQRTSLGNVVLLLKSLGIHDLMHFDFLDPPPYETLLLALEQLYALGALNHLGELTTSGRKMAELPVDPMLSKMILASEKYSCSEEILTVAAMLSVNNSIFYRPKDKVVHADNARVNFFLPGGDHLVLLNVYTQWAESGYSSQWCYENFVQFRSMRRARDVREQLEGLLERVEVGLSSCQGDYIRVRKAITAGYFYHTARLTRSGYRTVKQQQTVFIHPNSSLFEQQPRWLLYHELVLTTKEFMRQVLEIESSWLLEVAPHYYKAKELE
Briefly: SEC; around 30 μg PRP2(137–1022) mixed with a 5-fold excess of cofactor in 100 μl, 1 h on ice; Superdex 200 Increase 10/300 GL; 20 mM HEPES-KOH pH 7.5, 100 mM KCl, 1.5 mM MgCl2, 5% glycerol; fractions analysed by SDS-PAGE. The following applies: both partners purified. A general note: In gel filtration, larger molecules generally elute earlier.

B1: GPKOW (natural protein, human, UniProt Q92917 1-476, looked up)
chain: MADSKEGVLPLTAASTAPISFGFTRTSARRRLADSGDGAGPSPEEKDFLKTVEGRELQSVKPQEAPKELVIPLIQNGHRRQPPARPPGPSTDTGALADGVVSQAVKELIAESKKSLEERENAGVDPTLAIPMIQKGCTPSGEGADSEPRAETVPEEANYEAVPVEAYGLAMLRGMGWKPGEGIGRTFNQVVKPRVNSLRPKGLGLGANLTEAQALTPTGPSRMPRPDEEQEKDKEDQPQGLVPGGAVVVLSGPHRGLYGKVEGLDPDNVRAMVRLAVGSRVVTVSEYYLRPVSQQEFDKNTLDLRQQNGTASSRKTLWNQELYIQQDNSERKRKHLPDRQDGPAAKSEKAAPRSQHWLHRDLRVRFVDNMYKGGQYYNTKMIIEDVLSPDTCVCRTDEGRVLEGLREDMLETLVPKAEGDRVMVVLGPQTGRVGHLLSRDRARSRALVQLPRENQVVELHYDAICQYMGPSDTDDD
notes: human GPKOW, codon-optimized synthetic gene (GeneArt); also called PRP2 cofactor GPKOW; source: Sf9 or Hi5 insect cells, purified (Strep-Tactin, SEC); not shown: Twin-StrepII, N-terminal, kept
Regarding B1, the binding result is reported as “binds”.
